Experimental data taken from PMC3973307 (Nucleic Acids Research, 2014).

Tests used:
[1] = target: mouse Δ320-Polrmt (N-terminal truncation mutant lacking the amino-terminal 320 amino acids) (mouse, UniProt Q8BKF1 321-1207); assay: MST
[2] = target: mouse mitochondrial RNA polymerase (Polrmt), wild type (mouse, UniProt Q8BKF1 42-1207); assay: MST
Sequence of mouse mitochondrial RNA polymerase (Polrmt), wild type (Q8BKF1 42-1207): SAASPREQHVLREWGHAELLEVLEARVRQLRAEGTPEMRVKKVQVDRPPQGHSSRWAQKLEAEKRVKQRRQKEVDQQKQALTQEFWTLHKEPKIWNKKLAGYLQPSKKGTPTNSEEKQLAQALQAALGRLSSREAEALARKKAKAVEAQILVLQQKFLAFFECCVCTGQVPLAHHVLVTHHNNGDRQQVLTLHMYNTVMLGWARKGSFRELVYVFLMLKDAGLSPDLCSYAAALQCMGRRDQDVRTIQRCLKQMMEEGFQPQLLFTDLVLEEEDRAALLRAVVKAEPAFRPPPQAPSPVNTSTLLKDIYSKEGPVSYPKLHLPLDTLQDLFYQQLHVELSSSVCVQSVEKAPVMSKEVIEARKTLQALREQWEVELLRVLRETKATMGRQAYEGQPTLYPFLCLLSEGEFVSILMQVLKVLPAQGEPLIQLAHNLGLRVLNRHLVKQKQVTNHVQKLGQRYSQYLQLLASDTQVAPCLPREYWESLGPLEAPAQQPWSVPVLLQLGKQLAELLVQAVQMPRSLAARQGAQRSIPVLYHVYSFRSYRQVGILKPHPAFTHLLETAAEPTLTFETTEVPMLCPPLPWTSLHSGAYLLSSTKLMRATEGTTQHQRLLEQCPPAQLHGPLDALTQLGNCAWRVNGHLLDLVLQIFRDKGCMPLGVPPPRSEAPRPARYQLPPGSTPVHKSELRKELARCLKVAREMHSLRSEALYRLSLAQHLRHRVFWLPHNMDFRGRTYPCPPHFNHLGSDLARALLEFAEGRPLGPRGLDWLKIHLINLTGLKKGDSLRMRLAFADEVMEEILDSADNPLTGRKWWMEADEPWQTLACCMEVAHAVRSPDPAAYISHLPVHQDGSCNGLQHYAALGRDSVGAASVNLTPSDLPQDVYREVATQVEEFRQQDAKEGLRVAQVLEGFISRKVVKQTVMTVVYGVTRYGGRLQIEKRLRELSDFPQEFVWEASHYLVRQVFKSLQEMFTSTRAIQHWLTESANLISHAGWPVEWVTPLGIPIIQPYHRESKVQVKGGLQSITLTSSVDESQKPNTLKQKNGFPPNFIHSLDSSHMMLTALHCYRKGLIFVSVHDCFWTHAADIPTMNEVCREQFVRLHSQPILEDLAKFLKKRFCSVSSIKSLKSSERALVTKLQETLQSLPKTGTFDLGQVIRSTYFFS

Sequence of mouse Δ320-Polrmt (N-terminal truncation mutant lacking the amino-terminal 320 amino acids) (Q8BKF1 321-1207, stated change not applied): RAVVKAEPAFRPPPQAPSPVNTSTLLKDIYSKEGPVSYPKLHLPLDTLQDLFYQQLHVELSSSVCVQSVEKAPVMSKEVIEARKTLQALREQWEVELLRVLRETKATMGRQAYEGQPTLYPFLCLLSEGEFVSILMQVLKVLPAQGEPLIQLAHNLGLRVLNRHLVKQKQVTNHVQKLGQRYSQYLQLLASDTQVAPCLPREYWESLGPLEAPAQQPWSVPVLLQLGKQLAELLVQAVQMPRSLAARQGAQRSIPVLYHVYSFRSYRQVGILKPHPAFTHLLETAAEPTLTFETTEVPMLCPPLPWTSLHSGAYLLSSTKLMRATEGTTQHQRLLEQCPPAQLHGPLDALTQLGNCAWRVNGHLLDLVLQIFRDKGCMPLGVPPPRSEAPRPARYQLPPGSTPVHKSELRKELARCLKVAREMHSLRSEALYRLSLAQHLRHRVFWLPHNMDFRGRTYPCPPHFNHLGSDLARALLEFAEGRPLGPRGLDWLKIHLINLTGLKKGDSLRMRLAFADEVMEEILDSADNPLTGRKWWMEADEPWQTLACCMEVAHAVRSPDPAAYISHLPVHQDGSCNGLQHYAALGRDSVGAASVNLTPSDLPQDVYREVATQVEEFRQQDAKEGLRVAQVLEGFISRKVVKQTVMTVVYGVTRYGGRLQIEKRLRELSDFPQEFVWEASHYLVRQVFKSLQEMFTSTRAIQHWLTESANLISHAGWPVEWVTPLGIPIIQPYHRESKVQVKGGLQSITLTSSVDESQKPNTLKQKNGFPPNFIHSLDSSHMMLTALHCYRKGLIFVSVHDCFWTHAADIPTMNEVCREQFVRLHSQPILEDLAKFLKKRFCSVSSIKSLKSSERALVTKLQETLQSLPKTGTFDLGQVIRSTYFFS

Kd [1]: 49.4 ± 1.1 nM
Kd [2]: 105 ± 1.2 nM
B1: mouse mitochondrial transcription factor B2 (Tfb2m) (natural protein, UniProt Q3TL26 44-396, looked up)
chain: SDFNIEPLPDSDLEESSPWTSRNRSEPTRHIACKKAARNLVRDLLEHQNPSRQIILECNPGPGILTGALLKAGARVVAFESEKTFIPHLEPLQRNMDGELQVVHCDFFKMDPRYQEVVRPDVSSQAIFQNLGIKAVPWSAGVPIKVFGILPYKHERRILWKILFDLYSCESIYRYGRVELNMFVSEKEFRKLIATPKRPDLYQVMAVLWQVACDVKFLHMEPWSSFSVHTENGHLEKSKHGESVNLLKQNLYLVRMTPRRTLFTENLSPLNYDIFFHLVKHCFGKRNAPIIRHLRSLSTVDPINILRQIRKNPGDTAARMYPHDFKKLFETIEQSEDSVFKWIYDYCPEDMEF
modifications: amine-labelled with NT-647 dye
